For this experiment, the target named is T1, 6xHis–Brd4(1–720) (human, UniProt O60885 1-720).
T1 construct: not shown: 6xHis, N-terminal, kept
Nature of the experiment: pull-down. To be noted: both partners purified.

Drawing on paper PMC4005663 (Nucleic Acids Research, 2014), this text covers Kd for 2 molecules.

B1: GST–MLV IN CTD(290–408) (domain or fragment)
chain: PSLQAHLQALYLVQHEVWRPLAAAYQEQLDRPVVPHPYRVGDTVWVRRHQTKNLEPRWKGPYTVLLTTPTALKVDGIAAWIHAAHVKAADPGGGPSSRLTWRVQRSQNPLKIRLTREAP
notes: not shown: GST, N-terminal, kept
In general, Kd refers to the equilibrium constant for the complex coming apart. B1 had a Kd of 61.2 ± 4.05 nM.

B2: GST–MLV IN NTD–CCD(1–289) (domain or fragment)
chain: IENSSPYTSEHFHYTVTDIKDLTKLGAIYDKTKKYWVYQGKPVMPDQFTFELLDFLHQLTHLSFSKMKALLERSHSPYYMLNRDRTLKNITETCKACAQVNASKSAVKQGTRVRGHRPGTHWEIDFTEIKPGLYGYKYLLVFIDTFSGWIEAFPTKKETAKVVTKKLLEEIFPRFGMPQVLGTDNGPAFVSKVSQTVADLLGIDWKLHCAYRPQSSGQVERMNRTIKETLTKLTLATGSRDWVLLLPLALYRARNTPGPHGLTPYEILYGAPPPLVNFPDPDMTRVTNS
Consider B2, for which the Kd was > 2000 nM.
